B1: IκBα (natural protein, UniProt P25963 1-317, looked up)
chain: MFQAAERPQEWAMEGPRDGLKKERLLDDRHDSGLDSMKDEEYEQMVKELQEIRLEPQEVPRGSEPWKQQLTEDGDSFLHLAIIHEEKALTMEVIRQVKGDLAFLNFQNNLQQTPLHLAVITNQPEIAEALLGAGCDPELRDFRGNTPLHLACEQGCLASVGVLTQSCTTPHLHSILKATNYNGHTCLHLASIHGYLGIVELLVSLGADVNAQEPCNGRTALHLAVDLQNPDLVSLLLKCGADVNRVTYQGYSPYQLTWGRPSTRIQQQLGQLTLENLQMLPESEDEESYDTESEFTEFTEDELPYDDCVFGGQRLTL
B2: Transgelin 3 (TAGLN3) (natural protein, human, UniProt Q9UI15 1-199, looked up)
chain: MANRGPSYGLSREVQEKIEQKYDADLENKLVDWIILQCAEDIEHPPPGRAHFQKWLMDGTVLCKLINSLYPPGQEPIPKISESKMAFKQMEQISQFLKAAETYGVRTTDIFQTVDLWEGKDMAAVQRTLMALGSVAVTKDDGCYRGEPSWFHRKAQQNRRGFSEEQLRQGQNVIGLQMGSNKGASQAGMTGYGMPRQIM

The target in the series “Transgelin 3 (TAGLN3)” is B2. The series can be described thus: nanoDSF.
The series “IκBα” addresses B1. Description: nanoDSF. Background: In DSF a fluorescence change marks the thermal transition of the protein.

Take B1: in the series with Transgelin 3 (TAGLN3), the “Tm of TAGLN3 with 6-fold excess of IκBα (free TAGLN3: 56.8°C)” value was 61 °C.

The molecule B2 showed a Kd in the series with IκBα of 10 µM.

What is called Kd is the free concentration of one partner at which half of the binding sites on the other are occupied at equilibrium, for simple one-to-one binding. Read a high Kd as a looser complex.

These data come from article doi:10.1101/2021.04.16.440108 (bioRxiv, 2021).
